Experimental findings from the supplement of paper PMC9112550, “Optimization of the antimicrobial peptide Bac7 by deep mutational scanning” (BMC Biology, 2022) are described below.
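Also: peptides expressed intracellularly from a pBAD plasmid library in pooled LB shake-flask culture, induced with 0.3% L-arabinose, DNA abundance read by NGS, three biological replicates, DESeq2 with apeglm shrinkage.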

The data set relates to Escherichia coli TOP10. The data set can be described thus: shrunken log2 fold change of peptide-encoding DNA abundance (4.5 h post-induction vs induction); higher = less antimicrobial activity (less host growth inhibition). The conditions noted are these: time post-induction: 4.5 h; library: site-saturation at positions 5, 18, 19, 20.
RRIRARPPRLPRPRPRPNGNPRP: the “shrunken log2 fold change” value is -0.191.

For RRIRMRPPRLPRPRPRPCRVPRP, the “shrunken log2 fold change” value was determined as 0.00805.

As to RRIRYRPPRLPRPRPRPHWEPRP, the “shrunken log2 fold change” value is -0.276.

For the sequence RRIRRRPPRLPRPRPRPSYKPRP, the “shrunken log2 fold change” value is -0.563.

Turning to RRIRIRPPRLPRPRPRPLIEPRP, the “shrunken log2 fold change” value was -0.475.

As for RRIRNRPPRLPRPRPRPRWLPRP, the “shrunken log2 fold change” value came to 0.558.

Turning to RRIRQRPPRLPRPRPRPFKIPRP, the “shrunken log2 fold change” value was -0.00995.

Take RRIRERPPRLPRPRPRPGCYPRP: the “shrunken log2 fold change” value was -0.151.

As for RRIRTRPPRLPRPRPRPDQSPRP, the “shrunken log2 fold change” value was -0.0809.

Consider RRIRVRPPRLPRPRPRPIYAPRP, for which the “shrunken log2 fold change” value was -0.0133.

Consider RRIRLRPPRLPRPRPRPCHMPRP, for which the “shrunken log2 fold change” value is -0.0107.

Consider RRIRKRPPRLPRPRPRPVQLPRP, for which the “shrunken log2 fold change” value turned out to be 0.349.

With RRIRLRPPRLPRPRPRPCYQPRP, the “shrunken log2 fold change” value was -0.476.

Turning to RRIRIRPPRLPRPRPRPLDTPRP, the “shrunken log2 fold change” value was -0.142.

With RRIRVRPPRLPRPRPRPFTYPRP, the “shrunken log2 fold change” value is -0.105.

As to RRIRNRPPRLPRPRPRPCICPRP, the “shrunken log2 fold change” value is -0.33.

Turning to RRIRCRPPRLPRPRPRPYDYPRP, the “shrunken log2 fold change” value was -0.27.

As to RRIRGRPPRLPRPRPRPAWIPRP, the “shrunken log2 fold change” value was 0.347.

With RRIRHRPPRLPRPRPRPNTKPRP, the “shrunken log2 fold change” value was -0.0741.

Turning to RRIRNRPPRLPRPRPRPEGDPRP, the “shrunken log2 fold change” value is -0.043.

With RRIRHRPPRLPRPRPRPSRAPRP, the “shrunken log2 fold change” value came to 0.373.

As to RRIRNRPPRLPRPRPRPLVDPRP, the “shrunken log2 fold change” value worked out at 0.0463.

As to RRIRFRPPRLPRPRPRPWAEPRP, the “shrunken log2 fold change” value is 0.212.

Turning to RRIRFRPPRLPRPRPRPDESPRP, the “shrunken log2 fold change” value is -0.0167.

In the case of RRIRSRPPRLPRPRPRPGIWPRP, the “shrunken log2 fold change” value is 0.123.

As for RRIRPRPPRLPRPRPRPWIYPRP, the “shrunken log2 fold change” value is -0.584.

RRIRERPPRLPRPRPRPGCVPRP: the “shrunken log2 fold change” value is 0.118.

As to RRIRWRPPRLPRPRPRPIEIPRP, the “shrunken log2 fold change” value was -0.101.

Regarding RRIRQRPPRLPRPRPRPRLSPRP, the “shrunken log2 fold change” value is 0.0751.

Regarding RRIRLRPPRLPRPRPRPASKPRP, the “shrunken log2 fold change” value is -0.116.

In the case of RRIRKRPPRLPRPRPRPKWFPRP, the “shrunken log2 fold change” value was -0.039.

In the case of RRIRFRPPRLPRPRPRPLNHPRP, the “shrunken log2 fold change” value is -0.608.

In the case of RRIRVRPPRLPRPRPRPFTSPRP, the “shrunken log2 fold change” value is -0.0104.

Regarding RRIRDRPPRLPRPRPRPREFPRP, the “shrunken log2 fold change” value is -0.0261.

As for RRIRPRPPRLPRPRPRPFFWPRP, the “shrunken log2 fold change” value was 0.559.

Take RRIRLRPPRLPRPRPRPGWQPRP: the “shrunken log2 fold change” value is 0.175.

In the case of RRIRGRPPRLPRPRPRPVHLPRP, the “shrunken log2 fold change” value worked out at 0.034.

As to RRIRCRPPRLPRPRPRPQWWPRP, the “shrunken log2 fold change” value worked out at 0.433.

As for RRIRCRPPRLPRPRPRPANKPRP, the “shrunken log2 fold change” value is 0.361.

On to RRIRCRPPRLPRPRPRPERCPRP, for which the “shrunken log2 fold change” value was 0.302.

As to RRIRRRPPRLPRPRPRPAYWPRP, the “shrunken log2 fold change” value is 0.135.

Regarding RRIRYRPPRLPRPRPRPRRDPRP, the “shrunken log2 fold change” value is -0.17.

Regarding RRIRWRPPRLPRPRPRPGCHPRP, the “shrunken log2 fold change” value was 0.253.

Consider RRIRQRPPRLPRPRPRPPLEPRP, for which the “shrunken log2 fold change” value was 0.949.

For RRIRIRPPRLPRPRPRPAIWPRP, the “shrunken log2 fold change” value was determined as 0.0492.

RRIRLRPPRLPRPRPRPATMPRP: the “shrunken log2 fold change” value was -0.366.

For RRIRYRPPRLPRPRPRPENLPRP, the “shrunken log2 fold change” value amounted to 0.0949.

RRIRDRPPRLPRPRPRPDRIPRP: the “shrunken log2 fold change” value is -0.0411.

Consider RRIRLRPPRLPRPRPRPRCVPRP, for which the “shrunken log2 fold change” value turned out to be 0.0662.

Turning to RRIRCRPPRLPRPRPRPYFRPRP, the “shrunken log2 fold change” value was -0.759.

In the case of RRIRGRPPRLPRPRPRPNTGPRP, the “shrunken log2 fold change” value is 0.0864.

On to RRIRKRPPRLPRPRPRPLNAPRP, for which the “shrunken log2 fold change” value is 0.731.

As to RRIRMRPPRLPRPRPRPSFYPRP, the “shrunken log2 fold change” value is -0.29.

As for RRIRTRPPRLPRPRPRPVMRPRP, the “shrunken log2 fold change” value was -0.0406.

For RRIRSRPPRLPRPRPRPEIAPRP, the “shrunken log2 fold change” value was 0.00181.

RRIRERPPRLPRPRPRPDAWPRP: the “shrunken log2 fold change” value stood at 0.0128.

For the sequence RRIRMRPPRLPRPRPRPKETPRP, the “shrunken log2 fold change” value came out at 0.201.

As to RRIRDRPPRLPRPRPRPYDLPRP, the “shrunken log2 fold change” value was -0.00674.

Turning to RRIRVRPPRLPRPRPRPPHTPRP, the “shrunken log2 fold change” value came out at 0.0516.

Take RRIRKRPPRLPRPRPRPINFPRP: the “shrunken log2 fold change” value was -0.962.

Take RRIRCRPPRLPRPRPRPLPYPRP: the “shrunken log2 fold change” value is -0.804.

Regarding RRIRRRPPRLPRPRPRPIAMPRP, the “shrunken log2 fold change” value turned out to be 0.0579.

RRIRDRPPRLPRPRPRPYQLPRP: the “shrunken log2 fold change” value was -0.0742.

Consider RRIRKRPPRLPRPRPRPHEHPRP, for which the “shrunken log2 fold change” value came out at 0.0272.

Consider RRIRMRPPRLPRPRPRPKDTPRP, for which the “shrunken log2 fold change” value was 1.86.

For the sequence RRIRMRPPRLPRPRPRPFVFPRP, the “shrunken log2 fold change” value amounted to 0.0629.

For the sequence RRIRWRPPRLPRPRPRPNRRPRP, the “shrunken log2 fold change” value was 0.191.

Turning to RRIRCRPPRLPRPRPRPWIQPRP, the “shrunken log2 fold change” value is -0.000687.

On to RRIRSRPPRLPRPRPRPSYTPRP, for which the “shrunken log2 fold change” value was -0.437.

On to RRIRVRPPRLPRPRPRPPQCPRP, for which the “shrunken log2 fold change” value was -0.143.

Take RRIRRRPPRLPRPRPRPRYHPRP: the “shrunken log2 fold change” value was 0.14.

With RRIRARPPRLPRPRPRPVEMPRP, the “shrunken log2 fold change” value was 0.196.

For the sequence RRIRIRPPRLPRPRPRPSIRPRP, the “shrunken log2 fold change” value was -0.212.

Consider RRIRCRPPRLPRPRPRPQYMPRP, for which the “shrunken log2 fold change” value is -0.784.

Consider RRIRDRPPRLPRPRPRPTMIPRP, for which the “shrunken log2 fold change” value was -0.587.

Take RRIRIRPPRLPRPRPRPRKKPRP: the “shrunken log2 fold change” value was 0.247.

For RRIRFRPPRLPRPRPRPWGQPRP, the “shrunken log2 fold change” value came to 0.0397.

With RRIRERPPRLPRPRPRPLLNPRP, the “shrunken log2 fold change” value was 0.0481.

Turning to RRIRPRPPRLPRPRPRPLSDPRP, the “shrunken log2 fold change” value was -0.0446.

For the sequence RRIRSRPPRLPRPRPRPLFKPRP, the “shrunken log2 fold change” value was -0.127.

In the case of RRIRGRPPRLPRPRPRPMFNPRP, the “shrunken log2 fold change” value was -0.192.

As to RRIRHRPPRLPRPRPRPYLRPRP, the “shrunken log2 fold change” value was -0.173.

Take RRIRRRPPRLPRPRPRPGGHPRP: the “shrunken log2 fold change” value turned out to be 0.499.

With RRIRHRPPRLPRPRPRPMTLPRP, the “shrunken log2 fold change” value is -0.0135.

Turning to RRIRWRPPRLPRPRPRPTFPPRP, the “shrunken log2 fold change” value turned out to be 0.197.

With RRIRKRPPRLPRPRPRPTPWPRP, the “shrunken log2 fold change” value is 0.798.

As for RRIRMRPPRLPRPRPRPPIAPRP, the “shrunken log2 fold change” value was 0.826.

Consider RRIRIRPPRLPRPRPRPATKPRP, for which the “shrunken log2 fold change” value is -0.195.

For the sequence RRIRMRPPRLPRPRPRPQIHPRP, the “shrunken log2 fold change” value amounted to 0.149.

RRIRWRPPRLPRPRPRPLHRPRP: the “shrunken log2 fold change” value came to 0.0218.

With RRIRWRPPRLPRPRPRPNPVPRP, the “shrunken log2 fold change” value was -0.266.
